Concentration above which competition is seen, percent of detectable Jo-1 antibodies removed and IC50 (read off the curve) data for three molecules are collected here from patent publication US20150093799A1.

Assay [1] has as its target anti-Jo-1 antibodies (commercially available, from human patient samples) (human). As to the kind of experiment: competitive ELISA, full-length histidyl-tRNA synthetase on the plate.
The target is the same in assay [2]. Kind of assay: immunodepletion: HRS polypeptide on NHS-agarose (Affi-gel 10), anti-Jo-1 antibodies (RDL) at 1:1,000, titre by ELISA before and after. A general note: In an ELISA, binding on a coated surface is turned into a signal by an enzyme label.
Assay [3] shares this target. Kind of assay: competitive ELISA: soluble competitor pre-incubated with anti-Jo-1 serum; competitor is plate-bound full-length wild-type HisRS; A450.
Assay [4] has the same target. As to the kind of experiment: competitive ELISA: soluble competitor pre-incubated with anti-Jo-1 serum; competitor is plate-bound full-length human wild-type HisRS; A450.
The target is the same in assay [5]. As to the kind of experiment: competitive ELISA: soluble HisRS pre-incubated with anti-Jo-1 human serum at 1:2,000; competitor is plate-bound full-length wild-type HisRS; A450.

B1: Resokine (HRS(1-60)), His-tagged (peptide)
chain: MAERAALEELVKLQGERVRGLKQQKASAELIEEEVAKLLKLKAQLGPDESKQKFVLKTPKHHHHHH
On to B1, for which the concentration above which competition is seen in assay [1] is greater than 100 nM. Also, in assay [2], the percent of detectable Jo-1 antibodies removed is 20%.

B2: Full-length histidyl-tRNA synthetase (HRS), His-tagged (enzyme)
chain: MAERAALEELVKLQGERVRGLKQQKASAELIEEEVAKLLKLKAQLGPDESKQKFVLKTPKGTRDYSPRQMAVREKVFDVIIRCFKRHGAEVIDTPVFELKETLMGKYGEDSKLIYDLKDQGGELLSLRYDLTVPFARYLAMNKLTNIKRYHIAKVYRRDNPAMTRGRYREFYQCDFDIAGNFDPMIPDAECLKIMCEILSSLQIGDFLVKVNDRRILDGMFAICGVSDSKFRTICSSVDKLDKVSWEEVKNEMVGEKGLAPEVADRIGDYVQQHGGVSLVEQLLQDPKLSQNKQALEGLGDLKLLFEYLTLFGIDDKISFDLSLARGLDYYTGVIYEAVLLQTPAQAGEEPLGVGSVAAGGRYDGLVGMFDPKGRKVPCVGLSIGVERIFSIVEQRLEALEEKIRTTETQVLVASAQKKLLEERLKLVSELWDAGIKAELLYKKNPKLLNQLQYCEEAGIPLVAIIGEQELKDGVIKLRSVTSREEVDVRREDLVEEIKRRTGQPLCICAAALEHHHHHH
B2: the percent of detectable Jo-1 antibodies removed in assay [2] came out at 93%. Moreover, the IC50 (read off the curve) in assay [3] was found to be 0.03 nM; in assay [4], 0.3 nM; in assay [5], 0.8 nM.

B3: HRS(1-506) (enzyme)
chain: MAERAALEELVKLQGERVRGLKQQKASAELIEEEVAKLLKLKAQLGPDESKQKFVLKTPKGTRDYSPRQMAVREKVFDVIIRCFKRHGAEVIDTPVFELKETLMGKYGEDSKLIYDLKDQGGELLSLRYDLTVPFARYLAMNKLTNIKRYHIAKVYRRDNPAMTRGRYREFYQCDFDIAGNFDPMIPDAECLKIMCEILSSLQIGDFLVKVNDRRILDGMFAICGVSDSKFRTICSSVDKLDKVSWEEVKNEMVGEKGLAPEVADRIGDYVQQHGGVSLVEQLLQDPKLSQNKQALEGLGDLKLLFEYLTLFGIDDKISFDLSLARGLDYYTGVIYEAVLLQTPAQAGEEPLGVGSVAAGGRYDGLVGMFDPKGRKVPCVGLSIGVERIFSIVEQRLEALEEKIRTTETQVLVASAQKKLLEERLKLVSELWDAGIKAELLYKKNPKLLNQLQYCEEAGIPLVAIIGEQELKDGVIKLRSVTSREEVDVRREDLVEEIKRRTGQPL
The molecule B3 had a percent of detectable Jo-1 antibodies removed in assay [2] of less than 99%. The same molecule came in with an IC50 (read off the curve) in assay [4] of 0.3 nM.
